Assay results taken from paper PMC8864165, “Functional Effects of ARV-1502 Analogs Against Bacterial Hsp70 and Implications for Antimicrobial Activity” (Frontiers in Chemistry, 2022).

B1: unnamed (parent)
chain 1: RPDKPRPYLPRPRPPRPVR
chain 2: not shown

Variants of: B1
Assay: competitive fluorescence polarization
Conditions: with partner chain of the complex shown; S. aureus DnaK 16 µmol/L; unlabeled peptide 35 µmol/L
In the case of chain 1 D3F K4F P10D, the ratio to parent is reported as < 1. For chain 1 D3F K4F P10S, the ratio to parent was < 1. For chain 1 D3F K4F R11F, the ratio to parent was < 1. In the case of chain 1 D3F K4F R11L, the ratio to parent is reported as < 1. In the case of chain 1 D3K K4F, the ratio to parent is reported as < 1. With chain 1 D3K K4L the ratio to parent was < 1. With chain 1 D3K K4S the ratio to parent was < 1. chain 1 D3K R11L was tested, and the ratio to parent was < 1. For chain 1 D3S K4S R11L, the ratio to parent was < 1. With chain 1 D3S K4S Y8L the ratio to parent was < 1. With chain 1 Y8L the ratio to parent was < 1.
